Biological target: Alexa-647 NHS-labelled tubulin (UniProt P02550)
Experiment: MST

Alexa-647 NHS-labelled tubulin, sequence (P02550 whole entry, looked up): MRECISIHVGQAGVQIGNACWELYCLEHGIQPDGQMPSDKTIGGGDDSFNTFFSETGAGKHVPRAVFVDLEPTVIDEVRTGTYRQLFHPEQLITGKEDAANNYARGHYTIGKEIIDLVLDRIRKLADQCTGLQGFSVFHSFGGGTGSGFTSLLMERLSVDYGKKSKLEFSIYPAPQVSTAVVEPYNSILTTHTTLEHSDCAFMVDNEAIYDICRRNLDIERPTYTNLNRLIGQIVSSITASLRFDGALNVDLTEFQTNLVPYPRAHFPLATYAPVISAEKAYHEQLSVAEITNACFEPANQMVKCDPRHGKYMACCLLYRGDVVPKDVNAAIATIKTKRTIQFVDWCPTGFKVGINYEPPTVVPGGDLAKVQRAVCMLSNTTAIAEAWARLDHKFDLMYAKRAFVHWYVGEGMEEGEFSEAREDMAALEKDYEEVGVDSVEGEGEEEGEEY

Kd: 690 nM
Substance: recombinant HYC2 (GST-HYC2 or HYC2-6XHis) (from UniProt Q9FMI8 1-448) (natural protein)

Source: publication doi:10.1101/2024.09.06.611148
